Laboratory results from paper PMC10897327.

Experiments:
Test in all cases: native gel or EMSA; NativePAGE 3-12% Bis-Tris gel with Coomassie G-250, immunoblot for 52K; purified MBP-52K fusion proteins with or without TEV protease cleavage for 1 h at room temperature
[1] = target: MBP-52K fusion protein, S28/75A (MBP tag not removed) (human adenovirus type C5 (Ad5))
[2] = target: MBP-52K fusion protein, S28/75D (MBP tag not removed) (human adenovirus type C5 (Ad5))
[3] = target: MBP-52K fusion protein, wild type (MBP tag not removed) (human adenovirus type C5 (Ad5))
[4] = target: recombinant 52K S28/75A released from MBP-52K by TEV protease (human adenovirus type C5 (Ad5))
[5] = target: recombinant 52K S28/75D released from MBP-52K by TEV protease (human adenovirus type C5 (Ad5))
[6] = target: recombinant WT 52K released from MBP-52K by TEV protease (human adenovirus type C5 (Ad5))

“MBP-52K fusion protein, S28/75A (MBP tag not removed) (natural protein)” gave a stoichiometry N [1] of 2.
Work on “MBP-52K fusion protein, S28/75D (MBP tag not removed) (natural protein)” yielded a stoichiometry N [2] of 2.
“MBP-52K fusion protein, wild type (MBP tag not removed) (natural protein)” showed a stoichiometry N [3] of 2.
Substance “recombinant 52K S28/75A released from MBP-52K by TEV protease (natural protein)” has a stoichiometry N [4] of 2.
In the case of “recombinant 52K S28/75D released from MBP-52K by TEV protease (natural protein)”, the stoichiometry N [5] is reported as 2.
Work on “recombinant WT 52K released from MBP-52K by TEV protease (natural protein)” yielded a stoichiometry N [6] of 2.
